Measurements from PMC12075709, “Acute regulation of murine adipose tissue lipolysis and insulin resistance by the TGFβ superfamily protein GDF3” (Nature Communications, 2025).

T1: chimeric recombinant human ACVR2B-Fc (human, UniProt Q13705 19-137)
T1 construct: activin receptor type 2B (ACVR2B), human, part fused to Fc; Probably the extracellular domain fused to Fc (surmised); also called rhACVR2B-Fc; rhACVR2B
T1 sequence (looked up): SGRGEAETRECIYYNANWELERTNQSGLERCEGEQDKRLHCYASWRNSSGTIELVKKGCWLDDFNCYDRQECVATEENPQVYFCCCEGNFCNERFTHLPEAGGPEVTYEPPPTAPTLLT

T2: Fc-chimera of the human type II BMP receptor (rhBMPR2-Fc) (human, UniProt Q13873 27-150)
T2 construct: type II BMP receptor BMPR2, human, part fused to Fc; Probably the extracellular domain fused to human IgG1 Fc (surmised); also called rhBMPRII-Fc; BMPRII
T2 sequence (looked up): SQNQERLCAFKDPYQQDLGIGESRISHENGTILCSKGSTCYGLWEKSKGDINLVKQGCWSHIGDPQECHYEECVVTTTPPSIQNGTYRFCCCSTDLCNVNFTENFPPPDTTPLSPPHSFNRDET

T3: SB-431542-resistant rat ALK5 S278T (Alk5-ST) (rat, UniProt P80204 30-501, S278T)
T3 sequence (looked up): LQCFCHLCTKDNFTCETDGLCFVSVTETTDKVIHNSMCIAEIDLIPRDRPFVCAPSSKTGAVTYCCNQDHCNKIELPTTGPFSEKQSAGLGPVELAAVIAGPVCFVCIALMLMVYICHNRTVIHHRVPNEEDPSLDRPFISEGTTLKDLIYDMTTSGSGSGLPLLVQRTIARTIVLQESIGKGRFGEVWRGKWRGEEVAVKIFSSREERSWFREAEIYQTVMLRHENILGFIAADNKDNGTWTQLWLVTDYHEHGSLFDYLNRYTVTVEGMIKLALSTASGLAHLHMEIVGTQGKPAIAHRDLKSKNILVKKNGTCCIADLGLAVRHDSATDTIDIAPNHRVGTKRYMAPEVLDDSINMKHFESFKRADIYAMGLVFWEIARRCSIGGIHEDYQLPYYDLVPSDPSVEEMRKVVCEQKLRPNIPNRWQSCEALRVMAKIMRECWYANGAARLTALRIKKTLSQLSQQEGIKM

B1: recombinant human GDF3 (Growth Differentiation Factor 3) (ligand, UniProt Q9NR23 251-364, looked up)
chain: AAIPVPKLSCKNLCHRHQLFINFRDLGWHKWIIAPKGFMANYCHGECPFSLTISLNSSNYAFMQALMHAVDPEIPQAVCIPTKLSPISMLYQDNNDNVILRHYEDMVVDECGCG
notes: Growth Differentiation Factor 3, human, recombinant; also called rhGDF3; human rGDF3
B2: recombinant mouse GDF3 (Growth Differentiation Factor 3) (ligand, UniProt Q07104 253-366, looked up)
chain: AAISVPKGFCRNFCHRHQLFINFQDLGWHKWVIAPKGFMANYCHGECPFSMTTYLNSSNYAFMQALMHMADPKVPKAVCVPTKLSPISMLYQDSDKNVILRHYEDMVVDECGCG
notes: Growth Differentiation Factor 3, mouse, recombinant; also called rmGDF3; mouse rGDF3; source: CHO cell-derived

Legend:
[1] = molecular target: T1, chimeric recombinant human ACVR2B-Fc; test: SPR; Biacore T200; receptor-Fc captured on a Protein A sensor chip (~70 RU); rhGDF3 flowed over, two-fold dilutions 12.5 nM-0.391 nM; 20 mM HEPES pH 7.4, 350 mM NaCl, 3.4 mM EDTA, 0.05% P-20, 0.5 mg/ml BSA, 25 °C; 1:1 fit model with mass transport limitations; conditions: both partners purified
[2] = molecular target: T4, chimeric recombinant human ACVR2A-Fc (human, UniProt P27037 20-135); test: as above; conditions: both partners purified
T4 construct: activin receptor type 2A (ACVR2A), human, part fused to Fc; Probably the extracellular domain fused to Fc (surmised); also called rhACVR2A-Fc; rhACVR2A

[3] = molecular target: T2, Fc-chimera of the human type II BMP …; test: as above; conditions: both partners purified
[4] = molecular target: T2, Fc-chimera of the human type II BMP …; test: ITC; Nano ITC Standard Volume; 250 ng/mL of rhBMPR2-Fc, rhBMP2, rmBMP4 or rhBMP9 titrated into 250 ng/mL of rmGDF3; 10 injections of 8 µL at 350 s intervals, 300 rpm; conditions: both partners purified
[5] = molecular target: T2, Fc-chimera of the human type II BMP …; test: BLI; Gator Plus; capturing receptor (rhBMPR2-Fc) at 10 µg/mL on anti-human IgG Fc probes; GDF3 in solution (rhGDF3 50 nM; rmGDF3 25-100 nM); PBS, 1 mg/mL BSA, 0.1% Tween20, pH 7.4, 25 °C; conditions: both partners purified
[6] = molecular target: T3, SB-431542-resistant rat ALK5 S278T …; test: cell-based or functional assay

T4 sequence (P27037 20-135, change not shown): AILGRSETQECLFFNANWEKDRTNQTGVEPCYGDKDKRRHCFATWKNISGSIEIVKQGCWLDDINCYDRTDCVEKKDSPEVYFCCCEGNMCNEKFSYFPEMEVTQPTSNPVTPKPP

Binder	Kd [1]	koff [1]	kon [1]	Kd [2]	koff [2]	kon [2]	Kd [3]	koff [3]	kon [3]	Kd [4]	Kd [5]	koff [5]	kon [5]	SBE-luciferase (CAGA12) reporter activity in HEK-293 cells expressing Alk5-ST, rmGDF3 0, 250, 500 or 1000 ng/mL with SB-431542 [6]
B1	0.332 nM	0.00038 s⁻¹	2.12e+06 M⁻¹ s⁻¹	1.26 nM	0.000405 s⁻¹	1.21e+06 M⁻¹ s⁻¹	0.601 nM	0.00149 s⁻¹	2.19e+06 M⁻¹ s⁻¹	–	–	–	–	–
B2	–	–	–	–	–	–	–	–	–	811 nM	13.1 nM	0.00483 s⁻¹	370000 M⁻¹ s⁻¹	70 fold
